Biological target: 人重链铁蛋白(HFn) (人铁蛋白H亚基, wild type, recombinant from E. coli) (human)
Assay: ELISA, antigen coated at 1 μg/ml, purified antibody titrated, HRP goat anti-mouse IgG, OD450

人重链铁蛋白(HFn) (人铁蛋白H亚基, wild type, recombinant from E. coli) (human), sequence (chain, as listed by the source): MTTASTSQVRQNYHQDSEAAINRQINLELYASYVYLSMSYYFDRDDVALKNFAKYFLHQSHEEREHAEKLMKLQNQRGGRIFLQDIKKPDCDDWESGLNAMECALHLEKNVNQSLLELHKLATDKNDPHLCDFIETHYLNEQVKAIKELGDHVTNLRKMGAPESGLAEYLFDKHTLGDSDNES

EC50: 3.68 ng/mL
B1: 单克隆抗体3A (抗人重链铁蛋白的抗体3A, secreted by hybridoma 3A7 1B6, CGMCC NO:21906) (antibody, IgG2b, V domains shown)
VH: EVQLQQPGAELVKPGTSVKLSCKASGYIFTSYWMHWVKQRPGQGLEWIGEINPSNARTNYNEKFKSKATLTVDKSSSTTYMQLSSLTSEDSAVYYCARSSYGKNAMDYWGQGTSVTVSS
VL: DIQMTQTPSSLSASLGDRVTISCRTSQDISNYLNWYQQKPDGTVKLLIYYTSRLHSGVPSRFSGSGSGTAYSLTISNLEQEDIATYLCQEGNTLPRTFGGGTKLEIKR
notes: also called 3A单抗; 3A抗体
